Assay results published in the RNAGym collection of RNA variant scans (doi:10.7554/elife.80360).

B1: Hairpin Ribozyme (parent)
chain: GUCCUCUUUCACGUGCGCGUGAAAGAGAGAAGUGAACCAGAGAAACACACGUUGUGGUAUAUUACCUGGUA

Variants of: B1
Experiment: self-cleavage, relative activity (ratio to wild type); higher = more cleavage; co-transcriptional

In order of falling self-cleavage:
1. GUCCUCUCUCACGUGCGCGUGAAAGAGAGAAGUCAACCAGAGAAACACACGUUGUGGUAUAUUACCUGGUA [U8C G34C]  1.16
2. GUCCUCUCUCACGUGCGCGUGAAAGAGAGAAGUGAACCAGAGAAACACACGUUGUGGUAUAUUACCUGGUC [U8C A71C]  1.11
3. GUCCUCUCUCACGUGCGCGUGAAAGAGAGAAGUGCACCAGAGAAACACACGUUGUGGUAUAUUACCUGGUA [U8C A35C]  0.876
4. GUCCUCUCUCACCUGCGCGUGAAAGAGAGAAGUGAACCAGAGAAACACACGUUGUGGUAUAUUACCUGGUA [U8C G13C]  0.834
5. GUCCUCUAUCACGUGCGCGUGAAAGAGAGAAGUGAACCAGAGAAACACACGUUGUGGUAUAUUACCUGGCA [U8A U70C]  0.816
6. GUCCUCUCUCACGCGCGCGUGAAAGAGAGAAGUGAACCAGAGAAACACACGUUGUGGUAUAUUACCUGGUA [U8C U14C]  0.802
7. GUCCUCUCUCACGUGCGAGUGAAAGAGAGAAGUGAACCAGAGAAACACACGUUGUGGUAUAUUACCUGGUA [U8C C18A]  0.787
8. GUCCUCUCUCACGUGCGUGUGAAAGAGAGAAGUGAACCAGAGAAACACACGUUGUGGUAUAUUACCUGGUA [U8C C18U]  0.779
9. GUCCUCUAUCACGUGCGCGUGAAAGAGAGAAGUGAACCAGAGAAACACACGUAGUGGUAUAUUACCUGGUA [U8A U53A]  0.763
10. GUCCUCUCUCACGUACGCGUGAAAGAGAGAAGUGAACCAGAGAAACACACGUUGUGGUAUAUUACCUGGUA [U8C G15A]  0.743
11. GUCCUCUAUCACGUGCGCGGGAAAGAGAGAAGUGAACCAGAGAAACACACGUUGUGGUAUAUUACCUGGUA [U8A U20G]  0.711
12. GUCCUCUCUCACGUGCGCGUGAAAGAGAGAAGUGAACCAGAGAAACACACGGUGUGGUAUAUUACCUGGUA [U8C U52G]  0.709
13. GUCCUCUCUCACGUGCGCGUGAGAGAGAGAAGUGAACCAGAGAAACACACGUUGUGGUAUAUUACCUGGUA [U8C A23G]  0.709
14. GUCCUCUCUCACGUGCGCGUGAAAGAGUGAAGUGAACCAGAGAAACACACGUUGUGGUAUAUUACCUGGUA [U8C A28U]  0.693
15. GUCCUCUCUCACGUGCGCGUGAAAGAGCGAAGUGAACCAGAGAAACACACGUUGUGGUAUAUUACCUGGUA [U8C A28C]  0.691
16. GUCCUCUCUCACGUGCGCGUGAAAGAGAGAAGUGUACCAGAGAAACACACGUUGUGGUAUAUUACCUGGUA [U8C A35U]  0.679
17. GUCCUCUCUCACGUGCGCGUGAAAGAGAGAAGUGAACCAGAGAAACACACGUAGUGGUAUAUUACCUGGUA [U8C U53A]  0.674
18. GUCCUCUCUCACGUGCGCGUGAAAGAGAGAAGUGACCCAGAGAAACACACGUUGUGGUAUAUUACCUGGUA [U8C A36C]  0.671
19. GUCCUCUAUCACGUGCGCGUGAAAGAGAGAAGUGAACCAGAGAAACACACGAUGUGGUAUAUUACCUGGUA [U8A U52A]  0.658
20. GUCCUCUAUCACGAGCGCGUGAAAGAGAGAAGUGAACCAGAGAAACACACGUUGUGGUAUAUUACCUGGUA [U8A U14A]  0.642
21. GUCCUCUAUCACGUGCGCGUGAAAGAGAGAAGUGAACCAGAGAAACACACGUGGUGGUAUAUUACCUGGUA [U8A U53G]  0.59
22. GUCCUCUAUCACGUGCGCGUGAAAGAGAGAAGUGAACCAGAGAAACACACGUUGUGGUAUAUUACCUGGGA [U8A U70G]  0.585
23. GUCCUCUCUCACGUGCGCUUGAAAGAGAGAAGUGAACCAGAGAAACACACGUUGUGGUAUAUUACCUGGUA [U8C G19U]  0.582
24. GUCCUCUCUCACGUGCGCGUGAAAGAGAGAAGUGAACCAGAGAAACACACGUUGUGGUAUAUUACCUGGUU [U8C A71U]  0.569
25. GUCCUCUCUCAUGUGCGCGUGAAAGAGAGAAGUGAACCAGAGAAACACACGUUGUGGUAUAUUACCUGGUA [U8C C12U]  0.566
26. GUCCUCUCUCACGUGCGCGUGAAAGGGAGAAGUGAACCAGAGAAACACACGUUGUGGUAUAUUACCUGGUA [U8C A26G]  0.544
27. GUCCUCUAUCACGUGCGCGUGAAAGAGAGAAGUGAACCAGAGAAACACACGUUUUGGUAUAUUACCUGGUA [U8A G54U]  0.524
28. GUCCUCUAUCACGUGCGCGUGAAAGAGAGAAGUGAACCAGAGAAACACACGGUGUGGUAUAUUACCUGGUA [U8A U52G]  0.518
29. GUCCUCUCUCACGAGCGCGUGAAAGAGAGAAGUGAACCAGAGAAACACACGUUGUGGUAUAUUACCUGGUA [U8C U14A]  0.51
30. GUCCUCUCUCACGUGCGCGUGAAAGAGAGAAGUGAACCAGAGAAACACACGUGGUGGUAUAUUACCUGGUA [U8C U53G]  0.509
31. GUCCUCUCUCGCGUGCGCGUGAAAGAGAGAAGUGAACCAGAGAAACACACGUUGUGGUAUAUUACCUGGUA [U8C A11G]  0.458
32. GUCCUCUCUCACGUGCGCGUGAAAGAGAGAAGUGAACCAGAGAAACACACGUUUUGGUAUAUUACCUGGUA [U8C G54U]  0.453
33. GUCCUCUCUCACGUGCGCGUGAAAGAGAGAAGUGAACCAGAGAAACACACGCUGUGGUAUAUUACCUGGUA [U8C U52C]  0.405
34. GUCCUCUAUCACGGGCGCGUGAAAGAGAGAAGUGAACCAGAGAAACACACGUUGUGGUAUAUUACCUGGUA [U8A U14G]  0.401
35. GUCCUCUCUCACGUGCGCGUGAAAGAGAGAAGUGAUCCAGAGAAACACACGUUGUGGUAUAUUACCUGGUA [U8C A36U]  0.393
36. GUCCUCUCUCACGUGCGCGUGAAAGAGAGAAGUGAACCAGAGAAACACACGUUAUGGUAUAUUACCUGGUA [U8C G54A]  0.378
37. GUCCUCUCUCACGUGCGCGUGAAUGAGAGAAGUGAACCAGAGAAACACACGUUGUGGUAUAUUACCUGGUA [U8C A24U]  0.369
38. GUCCUCUCUAACGUGCGCGUGAAAGAGAGAAGUGAACCAGAGAAACACACGUUGUGGUAUAUUACCUGGUA [U8C C10A]  0.363
39. GUCCUCUCUCACGUGCGCGUGUAAGAGAGAAGUGAACCAGAGAAACACACGUUGUGGUAUAUUACCUGGUA [U8C A22U]  0.344
40. GUCCUCUCUCACGUGCGCGUGAAAGAGAGAAGUGAACCCGAGAAACACACGUUGUGGUAUAUUACCUGGUA [U8C A39C]  0.343
41. GUCCUCUCUCACGUGCGCGUGAAAGAGAGAAGUGAACCAGAGAAACACACGUUGUGGGAUAUUACCUGGUA [U8C U58G]  0.327
42. GUCCUCUAUCACGUGCGCGUGAAAGAGAGAAGUGAACCAGAGAAACACACGUUGCGGUAUAUUACCUGGUA [U8A U55C]  0.322
43. GUCCUCUCUCACGUGCGCGUGAAAGCGAGAAGUGAACCAGAGAAACACACGUUGUGGUAUAUUACCUGGUA [U8C A26C]  0.316
44. GUCCUCUCUCACGUGCGCGUGAAAGAGAGAAGUGAACCAGAGAAACAUACGUUGUGGUAUAUUACCUGGUA [U8C C48U]  0.272
45. GUCCUCUAUCACGUGCGCGUGAAAGAGAGAAGUGAACCAGAGAAACACACGUUGGGGUAUAUUACCUGGUA [U8A U55G]  0.268
46. GUCCUCUCUCACGUGCGCGUGAAAGAGAGAAGUGAACCAGAGAAUCACACGUUGUGGUAUAUUACCUGGUA [U8C A45U]  0.257
47. GUCCUCUAUCACGUGCGCGUGAAAGAGAGAAGUGAACCAAAGAAACACACGUUGUGGUAUAUUACCUGGUA [U8A G40A]  0.235
48. GUCCUCUCUCACGUGCGCGUGAAAGAGAGAAGUGAACCAGAGAAACACCCGUUGUGGUAUAUUACCUGGUA [U8C A49C]  0.216
49. GUCCUCUCUCACGUGCGCGUGAAAGAGAGAAGAGAACCAGAGAAACACACGUUGUGGUAUAUUACCUGGUA [U8C U33A]  0.216
50. GUCCUCUAUCACGUGCGCGUGAAAGAGAGAAGUGAACCAGAGAAACACACGUUGUGGUAUAUUACCUCGUA [U8A G68C]  0.215
51. GUCCUCUCUCACGUGCGCGUGAAAGAGAGAAGUGAACAAGAGAAACACACGUUGUGGUAUAUUACCUGGUA [U8C C38A]  0.215
52. GUCCUCUCUCACGUGCGCGUGAAAGAGAGAAGUGAAACAGAGAAACACACGUUGUGGUAUAUUACCUGGUA [U8C C37A]  0.214
53. GUCCUCUAUCACGUGCGCGUGAAAGAGAGAAGUGAACCAGAGAAACACACGUUGUGGUAUAUUACCAGGUA [U8A U67A]  0.196
54. GUCCUCUCUCACGUGCGCGUGAAAGAGAGAAGUGAACCAGAGAAAGACACGUUGUGGUAUAUUACCUGGUA [U8C C46G]  0.188
55. GUCCUCUCUCACGUGCGCGUGAAAGAGAGAAGUGAACCAGACAAACACACGUUGUGGUAUAUUACCUGGUA [U8C G42C]  0.187
56. GUCCUCUCUCACGUGCGCGUGAAAGAGAGAAGUGAACCAGAGAAACACACGUUGUGGUAUAUUACCUAGUA [U8C G68A]  0.186
57. GUCCUCUAUCACGUGCGCGUGAAAGAGAGAAGUGAACCAGAGAAACACACGUUGUGGUAUAUUACCCGGUA [U8A U67C]  0.186
58. GUCCUCUAUCACGUGCGCGUGAAAGAGAGAAGUGAACCAGAGAAACACACGUUGAGGUAUAUUACCUGGUA [U8A U55A]  0.184
59. GUCCUCUCUCACGUGCGCGCGAAAGAGAGAAGUGAACCAGAGAAACACACGUUGUGGUAUAUUACCUGGUA [U8C U20C]  0.184
60. GUCCUCUAUCACGUGCGCGUGAAAGAGAAAAGUGAACCAGAGAAACACACGUUGUGGUAUAUUACCUGGUA [U8A G29A]  0.183
61. GUCCUCUCUCACGUGCGCGUGAAAGAGAGAAGUGAACCAGAGAAACACACGUUGUGCUAUAUUACCUGGUA [U8C G57C]  0.172
62. GUCCUCUCUCACGUGCGCGUGAAAGAGAGAAGUGAACCAGAGAAACACACGUUGUGGUAUAUUAUCUGGUA [U8C C65U]  0.166
63. GUCCUCUCUCAAGUGCGCGUGAAAGAGAGAAGUGAACCAGAGAAACACACGUUGUGGUAUAUUACCUGGUA [U8C C12A]  0.164
64. GUCCUCUCUCACGUGCGCGUGAAAGAGAGAAGUGAACCAGAGAAACACACGUUGUGGUAUAUUACCUGCUA [U8C G69C]  0.164
65. GUCCUCUCUCACGUGCGCGUGAAAGAUAGAAGUGAACCAGAGAAACACACGUUGUGGUAUAUUACCUGGUA [U8C G27U]  0.158
66. GUCCUCUCUCACGUGCGCGUGAAAGAGAGAAGUGAACCAGAGAAACAGACGUUGUGGUAUAUUACCUGGUA [U8C C48G]  0.155
67. GUCCUCUCUCACGUGCGCGUGAAAGAGAGAAGUGAACCAGAGAAACACACGUUGUGGUAUAUUACCUUGUA [U8C G68U]  0.154
68. GUCCUCUCUCACGUGCGCGUGAAAGAGAGAAGUGAACCAGAGAAACACACGUUGUAGUAUAUUACCUGGUA [U8C G56A]  0.153
69. GUCCUCUCUCACGUGCGCGUGAAAGAGAGAAGUGAACCAGAGAAACGCACGUUGUGGUAUAUUACCUGGUA [U8C A47G]  0.147
70. GUCCUCUAUCACGUGCGCGUGAAAGAGAGAAGCGAACCAGAGAAACACACGUUGUGGUAUAUUACCUGGUA [U8A U33C]  0.137
71. GUCCUCUCUCACGUGCGCGUGAAAGAGAGAAGUGAACCAGAGAAACACACGUUGCGGUAUAUUACCUGGUA [U8C U55C]  0.132
72. GUCCUCUAUCACGUGCGCGUGAAAGAGAGAAGUGAACCAGAGAAACACACGUUGUGGUAUAGUACCUGGUA [U8A U62G]  0.123
73. GUCCUCUAUCACGUGCGCGUGAAAGAGAGAAGUGAACCAGAGAAACACACGUUGUGGUAUAUGACCUGGUA [U8A U63G]  0.117
74. GUCCUCUCUCACGUGCGCGUGAAAGAGAGAAGUGAACCACAGAAACACACGUUGUGGUAUAUUACCUGGUA [U8C G40C]  0.0998
75. GUCCUCUCUCACGUGCGCGUGAAAGAGAGAAUUGAACCAGAGAAACACACGUUGUGGUAUAUUACCUGGUA [U8C G32U]  0.0859
76. GUCCUCUCUCACGUGCGCGUGAAAGAGAGAAGUGAACCAGAGAACCACACGUUGUGGUAUAUUACCUGGUA [U8C A45C]  0.065
